Results on two molecules are retold here after patent US12571800B2, “Means and methods for treating angiogenesis-related diseases” (Heidelberg Biotech GmbH, priority 2011, dated 2026).

Series [1] relates to HUVECs. Nature of the series: Endothelial cell migration assay (transwell, VEGF-induced). It counts as cell-based, human. As to the method: HUVECs were plated into 24-well inserts of transwell plate in duplication. The lower chamber was filled with serum free medium containing 100 ng/ml […] VEGF (rhVEGF) plus different concentrations of hNC-1. After incubation for 16 h at 37° C., the cells were fixed and stained. […] Endostatin monomer, dimer and NC-1 were used for comparison (c).
1.7 Endothelial cell migration assay. HUVECs were washed by serum free EBM medium twice, re-suspended at 5×10^4 cells/well in 0.6 ml of medium, were plated into 24-well inserts (Coring, 8 μm pore size) in duplicates. The lower chamber was filled with 0.6 ml of serum free EBM medium containing 100 ng/ml […] (rh)VEGF (R&D) After incubation for 16 h at 37° C., the cells were fixed by methanol and stained with eosin and hemotoxlin. Cells on the upper side of the transwell membrane were removed by cotton swab. Cells migrating to the lower side of membrane were counted.
2.4 hNC-1 inhibits endothelial cells migration. Endothelial cell migration is an important step in new blood vessel formation and tumor angiogenesis. To evaluate the effect of hNC-1 on endothelial cell migration, rhVEGF has been used to induce HUVECs migration in a transwell assay. The migration of cells has been monitored and quantified Cells migrating across the membrane were stained with blue-purple stain (FIG. 3B(a)) and counted.

For series [2], the target named is T1, fibronectin (Homo sapiens, UniProt P02751). Nature of the series: Elisa, binding to fibronectin. The note with it: proteins coated at 10 μg/ml; fibronectin as ligand at the same concentration. The method, then:
Coating of proteins were done in PBS at concentration of 10 μg/ml. Fibronectin served as a ligand at the same concentration. All buffers contained 2% BSA, 0.1% Tween-20.
Three protein constructs human Fc (control), dimeric human (h)Fc-Endostatin and hFc-VEGF were employed. […] Artificial endostatin dimer was generated by introducing a single mutation in amino acid position 7 of endostatin (changing glutamine to cysteine) in the recombinant Fc-endostatin. Upon digestion of this mutant protein by enterokinase, endostatin dimer is produced, linked by a disulfide bond (Kuo et al., loc. cit.).

For series [3], the system named is human melanoma cancer cells (A2058). Nature of the series: A2058 human melanoma tumors in nude mice. In kind it is in vivo. As to the method:
4-6 tumor-bearing nude mice in each group were subcutaneously (s.c.) treated with hNC-1 (100 μg/mouse once a day), clinical-grade endostatin (100 and 500 μg/mouse once a day) or PBS. Treatment was stopped prior to the development of necrosis. Sites of injection were away from tumors. Tumor sizes and the ratio of treated/control (T/C) is shown.
1.4 Animal and tumor models. All animal procedures were carried out in compliance with Children's Hospital Boston guidelines Protocols were approved by the Institutional Animal Care and Use Committee. Eight-week-old male (24-27 g) nude/nude mice (Massachusetts General Hospital, Boston, MA) were used. Mice were acclimated, caged in groups of five in a barrier care facility, and fed animal chow and water ad libitum. Animals were euthanized by CO2 inhalation. Human melanoma cell line A2058 was used for animal studies. A suspension of 2×10^6 tumor cells in 0.1 ml of PBS was injected subcutaneously (s.c.) into the dorsa of mice at the proximal midline. Mice were weighed and tumors were monitored twice a week in two diameters with digital calipers. Tumor volumes were determined using a^2×b×0.52 (where a is the shortest and b is the longest diameter). Tumors were allowed to grow to ˜100 mm^3 and mice were randomized. Treatment was by bolus s.c. injections. After experiments were completed, tumors and organs were excised and fixed in either 4% paraformaldehyde or were snap frozen. Four to six mice were treated with each group.
2.6 hNC-1 suppresses tumor growth in vivo. In order to compare anti-tumor activities of NC-1 and endostatin, nude mice bearing human melanoma cell line A2058 were employed. Two doses of clinical grade endostatin differing by 5-fold in concentration of protein (low and high doses) were used. […] It cannot be ruled out the possibility that injected NC-1 becomes degraded upon entering the circulation.

The test system of series [4] is HUVECs. The series is described as follows: Immunofluorescence, endothelial cell surface binding. In kind it is cell-based, human. As to the method:
HUVECs were incubated with Fc-endostatin and detected with Alexa 488 IgG or human NC-1 (hNC-1) trimer and detected by anti-His tag monoclonal antibody.
1.5 Immunocytochemistry. HUVECs were plated and grown on cover slips. […] The slips were incubated in the blocking buffer (2% BSA PBS) for 30 min. For hFc-endostatin or hFc groups, the slides were incubated with Alexa 488 antihuman IgG for imaging. For hNC-1 or IgG groups, the slides were incubated with mouse anti-His-tag monoclonal antibody, then probed by Alexa 488 anti-mouse IgG. Anti-fibronectin antibody (R&D) was used for secondary staining for all slides and probed by Alexa 594 anti-goat IgG and imaged by confocal-microscopy. DAPI counterstaining of nuclei is shown in blue.
2.3 Binding of oligomeric hFc-endostatin and hNC-1 to HUVECs. Immunoflourescence technique was employed to detect endothelial cell surface binding of oligomeric endostatin and NC-1.

In series [5] the target is T1, fibronectin. Nature of the series: Biacore (SPR) equilibrium binding constants to fibronectin. The settings on record: fibronectin 0.78 nM-100 nM over immobilized protein; values only in FIG. 1C. As to the method: Fibronectin samples were prepared by serial dilution into 0.01 M Hepes, pH 7.4, 0.15 M NaCl, 0.05% Surfactant containing 1 mg/ml BSA in the range 0.78 nM-100 nM and flowed over control and derivatized surfaces for three minutes at a flow-rate of 60 μl/min. Dissociation phases were monitored for 5 minutes. Zero concentration blank buffer cycles were included as negative control samples. Sensor surfaces were regenerated using a 1 minute injection of 1 M ethanolamine, pH 8.5 following each interaction analysis cycle. Non-specific binding effects to sensor surface CM4 were not observed. Calculated ka, kd and KD are shown. Different curves correspond to different concentrations of fibronectin.
1.3 Surface Plasmon Resonance (SPR) binding assays. This analysis provides for a unique method for measuring equilibrium constants between two binding partners. It is able to evaluate the kinetics of an interaction by recording the rates of complex formation (ka) and dissociation (kd) followed by employing a software which determines the values of these two parameters. Equilibrium constant (KD) is obtained by calculating the ration of kd/ka Human VEGF (R&D), endostatin, endostatin dimer and human NC-1 (hNC-1) were diluted to 50 μg/ml in 10 mM Sodium Acetate, pH 5.5 and immobilized onto series S sensor chip(s) CM4 via a standard N-ethyl-N′-(dimethyl-aminopropyl)carbodiimide/N-hydroxysuccinimide (EDC/NHS) amine coupling procedures. Control surfaces were prepared similarly without protein derivatization and utilized as a reference surface for compound binding experiments.
Binding measurements were performed using a Biacore™ (GE Healthcare, Uppsala, Sweden) instrument which employs surface plasmon resonance to detect and monitor molecular interactions.
Data analysis was carried out using Biacore T100 evaluation software v1.1.1. Data were prepared by subtraction of reference surface data and blank buffer sample data, a procedure commonly referred to as ‘double referencing’ and fitted to a 1:1 langmuir binding model.
In order to measure equilibrium binding constants for the above proteins, a Biacore system was employed. […] Fc-endostatin imposes a dimeric structure on the two molecules of endostatin at the C-terminus of Fc dimer.

A short description of series [6]: Stability in serum or cell culture media. The settings on record: longer periods of time, even at 4° C. In kind it is in vitro ADME. The text has this:
The invention also relates to a method for producing the protein oligomer or peptide oligomer or fusion protein of the invention, comprising (a) culturing a host cell comprising a nucleic acid encoding the protein oligomer or peptide oligomer or fusion protein of the invention, preferably under serum-free conditions, (b) obtaining from the host cell of step (a) the protein oligomer or peptide oligomer or fusion protein, and, optionally, (c) storing the protein oligomer or peptide oligomer or fusion protein, preferably under serum-free conditions. […] Therefore, it is advantageous to produce and keep the protein oligomer or peptide oligomer of the invention under serum-free conditions.
The earliest condition media employed for endostatin isolation was continuously kept at 4° C. for a long period of time (at least a month) prior to final purification step. Presence of fetal calf serum in the media can cause degradation of NC-1. Confirmation of this hypothesis was established by another group in the inventor's laboratory a year later, employing the same mouse tumor cell line (Wen et al., loc. cit.). […] Consequently, the earlier observation of an endostatin size protein being the only product following HPLC purification, strongly supports the inventor's hypothesis that NC-1 was completely digested to an endostatin size molecule after prolonged incubation at 4° C. […]

The subject of series [7] is solid tumors. The settings on record: cited from earlier work.
Series [8] relates to rat aortic rings. The note with it: in vitro; cited from earlier work.
Series [9] has as its system human umbilical vein endothelial cells (HUVECs). The note with it: in vitro; cited from earlier work.
Series [10] has as its system chicken chorioallantoic membrane. The note with it: CAM assay; cited from earlier work.

T1 sequence (P02751 32-2477): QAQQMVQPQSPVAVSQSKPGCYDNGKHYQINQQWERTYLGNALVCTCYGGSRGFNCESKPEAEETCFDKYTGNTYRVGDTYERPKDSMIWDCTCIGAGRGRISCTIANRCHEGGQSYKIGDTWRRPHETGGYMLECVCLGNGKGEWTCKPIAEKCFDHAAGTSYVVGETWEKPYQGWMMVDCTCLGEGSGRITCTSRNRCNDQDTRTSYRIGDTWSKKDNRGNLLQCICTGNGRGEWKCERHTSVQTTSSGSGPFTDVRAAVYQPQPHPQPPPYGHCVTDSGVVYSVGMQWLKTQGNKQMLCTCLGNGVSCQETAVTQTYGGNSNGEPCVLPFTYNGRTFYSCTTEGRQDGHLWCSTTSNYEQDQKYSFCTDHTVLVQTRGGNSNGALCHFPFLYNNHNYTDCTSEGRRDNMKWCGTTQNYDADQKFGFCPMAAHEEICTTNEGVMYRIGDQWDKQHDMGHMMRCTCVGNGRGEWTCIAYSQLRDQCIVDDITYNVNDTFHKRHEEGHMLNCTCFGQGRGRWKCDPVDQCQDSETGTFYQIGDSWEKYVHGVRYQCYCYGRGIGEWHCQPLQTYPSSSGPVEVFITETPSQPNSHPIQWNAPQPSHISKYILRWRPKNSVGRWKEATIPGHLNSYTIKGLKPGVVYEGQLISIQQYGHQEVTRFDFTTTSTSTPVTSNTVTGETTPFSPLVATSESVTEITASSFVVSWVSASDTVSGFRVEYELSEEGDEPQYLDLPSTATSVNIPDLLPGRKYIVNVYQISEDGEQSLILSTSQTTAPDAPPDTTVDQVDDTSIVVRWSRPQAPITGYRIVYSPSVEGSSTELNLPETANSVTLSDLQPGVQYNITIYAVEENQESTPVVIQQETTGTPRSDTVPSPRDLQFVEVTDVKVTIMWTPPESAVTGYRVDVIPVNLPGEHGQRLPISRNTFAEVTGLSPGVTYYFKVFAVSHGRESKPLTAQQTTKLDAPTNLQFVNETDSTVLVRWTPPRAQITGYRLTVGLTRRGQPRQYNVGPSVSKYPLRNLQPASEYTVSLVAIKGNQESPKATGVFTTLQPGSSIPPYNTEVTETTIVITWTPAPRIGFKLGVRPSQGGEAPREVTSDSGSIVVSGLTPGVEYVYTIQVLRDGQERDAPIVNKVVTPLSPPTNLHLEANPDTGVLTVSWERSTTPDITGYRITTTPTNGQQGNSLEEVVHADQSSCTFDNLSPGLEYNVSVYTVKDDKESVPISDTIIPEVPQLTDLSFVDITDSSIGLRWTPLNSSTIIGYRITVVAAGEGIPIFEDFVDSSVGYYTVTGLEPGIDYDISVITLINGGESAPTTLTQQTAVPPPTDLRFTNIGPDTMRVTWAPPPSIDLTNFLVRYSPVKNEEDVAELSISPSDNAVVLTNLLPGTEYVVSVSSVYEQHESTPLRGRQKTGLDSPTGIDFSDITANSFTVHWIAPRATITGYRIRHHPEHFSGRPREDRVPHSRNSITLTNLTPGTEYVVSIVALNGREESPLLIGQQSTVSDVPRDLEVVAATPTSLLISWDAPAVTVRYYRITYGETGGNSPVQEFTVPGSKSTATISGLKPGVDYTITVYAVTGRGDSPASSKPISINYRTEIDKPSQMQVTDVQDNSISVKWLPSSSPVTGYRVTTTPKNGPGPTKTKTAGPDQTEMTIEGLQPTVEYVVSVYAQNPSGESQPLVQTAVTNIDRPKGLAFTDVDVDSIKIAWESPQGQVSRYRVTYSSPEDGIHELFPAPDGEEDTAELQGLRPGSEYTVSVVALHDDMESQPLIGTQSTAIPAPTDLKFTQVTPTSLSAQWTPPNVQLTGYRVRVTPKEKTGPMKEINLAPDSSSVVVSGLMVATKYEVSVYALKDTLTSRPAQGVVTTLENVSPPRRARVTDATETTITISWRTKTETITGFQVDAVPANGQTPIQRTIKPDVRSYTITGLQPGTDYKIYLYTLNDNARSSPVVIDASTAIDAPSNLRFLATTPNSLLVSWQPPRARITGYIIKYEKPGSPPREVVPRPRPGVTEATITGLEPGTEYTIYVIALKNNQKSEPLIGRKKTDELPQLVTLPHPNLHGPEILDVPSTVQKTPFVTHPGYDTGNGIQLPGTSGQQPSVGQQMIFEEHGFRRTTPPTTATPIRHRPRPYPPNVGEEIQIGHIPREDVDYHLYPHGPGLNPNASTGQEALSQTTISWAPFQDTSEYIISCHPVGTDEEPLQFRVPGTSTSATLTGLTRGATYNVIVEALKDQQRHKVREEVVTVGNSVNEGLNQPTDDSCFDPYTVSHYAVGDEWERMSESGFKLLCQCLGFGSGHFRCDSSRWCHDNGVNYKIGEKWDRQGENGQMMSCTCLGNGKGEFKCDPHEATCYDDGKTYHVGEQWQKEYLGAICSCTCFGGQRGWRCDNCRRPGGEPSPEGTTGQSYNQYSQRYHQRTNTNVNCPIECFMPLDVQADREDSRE

B1: hNC-1: naturally occurring trimeric NC-1 domain of human collagen 18: association domain, hinge region and endostatin domain (protein)
chain: SGVRLWATRQAMLGQVHEVPEGWLIFVAEQEELYVRVQNGFRKVQLEARTPLPRGTDNEVAALQPPVVQLHDSNPYPRREHPHPTARPWRADDILASPPRLPEPQPYPGAPHHSSYVHLRPARPTSPPAHSHRDFQPVLHLVALNSPLSGGMRGIRGADFQCFQQARAVGLAGTFRAFLSSRLQDLYSIVRRADRAAVPIVNLKDELLFPSWEALFSGSEGPLKPGARIFSFDGKDVLRHPTWPQKSVWHGSDPNGRRLTESYCETWRTEAPSATGQASSLLGGRLLGQSAASCHHAYIVLCIENSFMTASK
modifications: left off: small tags and cut ends
notes: naturally occurring trimeric NC-1 domain of human collagen 18: association domain, hinge region and endostatin domain
B1: the “anti-migratory potency among endostatin monomer, dimer and NC-1” value in [1] is “most potent anti-migratory agent”. In addition, the “VEGF-induced endothelial cell migration” value in series [1] (100 ng/ml rhVEGF, 16 h) is reported as “inhibited VEGF-induced endothelial cell migration”. Also, the endothelial cell migration entry in series [1] (100 and 200 ng/ml of hNC-1) was “less migration”. In addition, the “dose effect on endothelial cell migration” value in [1] (different concentrations of hNC-1) was “U-shaped curve”. Further, the “binding to fibronectin (Elisa)” value in series [2] is “bound fibronectin”. For the same molecule, the “inhibition of tumor growth” value in [3] (end of experiment, s.c. once a day, hNC-1 100 μg/mouse, endostatin 100 and 500 μg/mouse) is 67%. Further, the “anti-tumor activity compared with endostatin” value in series [3] (low dose of NC-1 vs 5-fold higher dose of endostatin) was “anti-tumor activity similar to high dose of endostatin”. The results for the “binding to HUVECs” value in [4] (cells cultured only for 24 hours) and in [4] (incubation time prolonged to 72 hours) were “poor binding” and “significant binding”, respectively. For the same molecule, in [5], the “equilibrium binding constant to fibronectin (Biacore)” value is “High affinity constants”. For the same molecule, in series [6], the “stability in serum or cell culture media” value was “susceptible to degradation”.

B2: Endostar: recombinant human endostatin from Escherichia coli with an additional nine-amino acid sequence forming a his-tag (protein, UniProt P39060 1572-1754, looked up)
Endostatin: HSHRDFQPVLHLVALNSPLSGGMRGIRGADFQCFQQARAVGLAGTFRAFLSSRLQDLYSIVRRADRAAVPIVNLKDELLFPSWEALFSGSEGPLKPGARIFSFDGKDVLRHPTWPQKSVWHGSDPNGRRLTESYCETWRTEAPSATGQASSLLGGRLLGQSAASCHHAYIVLCIENSFMTASK
modifications: Endostatin nine-residue his-tag
Turning to B2, in series [7] (7.5 mg/m^2/day i.v. more than 7 days, with chemotherapy), the “Median time to tumor progression” value is 3.0 months. Besides, in series [7] (human, in vivo), the “toxicity combined with chemotherapy” value was “tolerable” and the treatment related death result is “No treatment related death”. In series [7] (of 42 patients), the patients remaining stable result is “twenty-one” and the “patients with progressive disease” value was “nineteen”. In series [7] (with chemotherapy), the Median overall survival is on record as 30.0 months, the complete response result is given as “No complete response”, the “one year survival rate” value was 81.0% and the “patients with partial response” value is listed as “Two of 42”. In [8], the “microvessel sprouting from rat aortic rings” value was “blocked microvessel sprouting”. Also, in [9], the “VEGF-stimulated proliferation, migration, and tube formation of HUVECs” value is reported as “suppressed”. Also, in series [10], the “formation of new capillaries from pre-existing vessels” value is “inhibit the formation of new capillaries”.
